# Assay results reported in the DeepSol protein solubility set.
# Test: soluble on expression in E. coli; label from the status in PepcDB or PDB records
row,Sequence,soluble on expression in E. coli
1,MGSDKIHHHHHHMSTNISLFAQVIRLLPRPLIKKLSTEFQVDKHSKHFTSWQHLVSMIFSQFSSCISLREISNGLRSATGNLNHLGICTAPSKSNLSYQNEHRTSDFFRACYYALLDYFGQQGMGQGRKFRFKQPVKLLDSTTITLCLALYDWAKYTHTKGAVKLHTLLDFKTLLPEYVHISDGKGHDGKMANSIPIPAGSIVVADRGYADTALLNSWDSTQVSFVVRHPRSLKYEVIQELELPEHGHQQILVDQRVRLTGVQTQGKYTKPLRHIALYNEQHGDVVELLTNIDTLAASSIALLYRSRWLIEIFFRNLKQRLSMKAFLGTTRNAVEVQIWTALITMLLMVYLKSIAKYRWCLSNLVSSLRINTFTKMDLMQWLNEPFTPPPEPENQLF,not soluble
2,MGSDKIHHHHHHMSTPSPHCALCGIALGERLCRDSEGKSPAFCPTQNFSEIKEENSALYEGETKRFAKNAAIQEASCYEGREQGYAHLRPAKPRIEEIIEFAQKMGYQKLGLAFCMGLRNEAKAVELLLQKRGFEVVSVICKVGNSDKSTLGIDEEDKLIPHTPEAMCDPLLQARLLNESQTDFNIMLGLCVGHDSLFLKASEALCTVFAVKDRLLGHNPLAAIYTLESYYRSLKEG,not soluble
3,MGSDKIHHHHHHMSVGIRHDDLRRRNRAMVIAAVRRAGRPSRTEIAATTGLSHSTISAISSDLIGEGILAEGKPSEAGALKRGRPQVGLGLNPEAAAVMTVVLSLNFLSVAVIDYAGQVISEEQRRLDTLTMSREALIGECVAIVRRRLEDPDIDVRSVARIALAIQGITDTEARAMLWSPITPQTDIAFADILEAEFGIPATMENDCNMMAVALRWRDPERYRDDFIAILLSHGIGMGLVLKGELFTGTHSSGGEFGHMIHRPGGALCRCGRRGCVEAYAGNYAIWRNARQLSEDTEPVADVSDAQMRALAATARERDGPEREAYRKAGEALGYGLGSLFALIDPAPVAMVGVSAAAFDLIEPALREAIAQTAGGQHSESISFDTEPNELPLIREGCAMRALTFVDQEIFAPGVQTKAGLAAKKNVA,not soluble
4,MGSDKIHHHHHHMSVLKGSQNVTICNANGLKLAARLELPDIPPRGMAMIAPAFGCTKEILIASRTARRLLQYGIGSLRLDFTGIGQSEGDFSMTNLDTQVEDFVSAADWLRQHVAAPNILIGHSFGGLVALNACHSIPESRACVTIATPESPAHVLEIIGEDKTREIMQGGATSIEVNRQPYVLRRQFADHARQFRLHDTMQRLRVPVLIMHSPRDEMVPMRHAHAIFETARHPKSLLAIEDADHMVSERPAAEFVASTIGLWGMRYLTDG,not soluble
5,MGSDKIHHHHHHMSVLNAKECVSPITRSVKYHQQSAEIRALQLQSYKMAKMALDNNLKLVKDKKPAVILDLDETVLNTFDYAGYLIKNCIKYTPETWDKFEKEGSLTLIPGALDFLEYANSKGVKIFYISNRTQKNKAFTLKTLKSFKLPQVSEESVLLKEKGKPKAVRRELVAKDYAIVLQVGDTLHDFDAIFAKDAKNSQEQRAKVLQNAQKFGTEWIILPNSLYGTWEDEPIKAWQNKK,not soluble
6,MGSDKIHHHHHHMSVPRWVAERTGLPRTAHDAGTIGAAGCTVNRFAVALMPDSGGHPRKPIAGVDAPPPHLLLVARRMTRPGEHMALTTYTPVITVFAAGREWTLERAADLQTLWDNMVEADFGDDERLPYWTELWPSSLVLADWLHDNAGRIRGRTCLDMGCGLGLCSLVGQWLGARVTGMDYEPEALFHARRNAERNRVPQPLWTVMDWRAPAVRRHAADLVWGGDIMYERRFVTPVLDFLDHVLAPCGAAWVAEPGRTVYNHFRETLDARGWHARRVLSSETASLYEQPESVTVHLWEITR,not soluble
7,MGSDKIHHHHHHMSYGYDKNADDIMKNADHIFEIKGIMRFPDRLKESIGDISIRSFAKKCGLSEGVMRNYLAGKTYPSLDKLALMAEVSNKPLDWLVAGTEHNFNELNEPGSKYVIGINLEEYALIPGYRVQVSAGHGALNCDQQDPVRYLAFRRKWLKYRGFEEHELAIVWAKGDSMEPTIHSNDTLVVHLGRNSPADGHIYIFRNGDDLFVKRYQNAFGSWRLISDNPVYDKLDIPKHEQHQFEVVGQVVHIAKDIGD,not soluble
8,MGSDKIHHHHHHMTAKVISFINMKGGVGKTTLCVGVSEFMAHFKSKKILLIDLDPQFNATQTLMDMYDLTDQYMNDIRFNKTIRLLFEETHSVSERPVLPKPDKVILHLDTSDVIDGELDIICGSIDLIKDDDSRKSKYKRVRKFLREQGLLKHYDYIFIDCPPTISFYTDAALYASDYYIVPTRIDRYSILGINLLKTVIEQAKFDDDLSIEPLGLIYTNYPTNNIPAPKQQEILDVLEENKDVLEIGVFRNKFHYLEHLMTGKSGNIASKYVKSKKDIEKISVEIESKVH,not soluble
9,MGSDKIHHHHHHMTALDDKTIVRDYFNATGFDRWSRIYGDGEVNFVQKNIRIGHQRTVDTVLSWLEADGNLSDRSFCDAGCGVGSLSLPLAQRGAQAVYASDISAKMVEEARERASQIPNLNNIQLEVSDLASLSGRYDTVICLDVLIHYPESDAAAMLSHLCSLAEQRVLVSFAPKSPVLNVLKRIGQFFPGASKTTRAYQHSETAIAAALAANGFQVQRRAFNKAPFYFSLLLEAVRTA,not soluble
10,MGSDKIHHHHHHMTDFSQLPNAAGVGYKPQHFQNIIDGSGAVDWLEIHAENYMGDGGRPLAQLRHLAERFPISVHGVGLSIGGEGPLDPEHLARLKHLVDWLKPASFSEHLAWSTHDTHFYNDLLPLPYTDATLARICDHIDMVQTLLGRRMLLENPSSYLAFAESTWEEPAFLHEIAKRTGCGLLLDVNNVFVSATNLGYRPQDYIDAYPLDLVGEIHLGGHDEDEDDHGRPLLIDSHGAEVVDPVWSLLSYTLTRSGPKPTLVEWDTDVPEWSVLEAEAARAANALRTAKVAA,not soluble
11,MGSDKIHHHHHHMTDKMQSLALAPVGNLDSYIRAANAWPMLSADEERALAEKLHYHGDLEAAKTLILSHLRFVVHIARNYAGYGLPQADLIQEGNIGLMKAVRRFNPEVGVRLVSFAVHWIKAEIHEYVLRNWRIVKVATTKAQRKLFFNLRKTKQRLGWFNQDEVEMVARELGVTSKDVREMESRMAAQDMTFDLSSDDDSDSQPMAPVLYLQDKSSNFADGIEDDNWEEQAANRLTDAMQGLDERSQDIIRARWLDEDNKSTLQELADRYGVSAERVRQLEKNAMKKLRAAIEA,not soluble
12,MGSDKIHHHHHHMTDMTYDVEQDVVAESERISAIFSEVLDIGQVAATDNFFNLGGDSFDAIRVMSRLDGNLPIVALFEHPTAETLARFRLTEESLAITRLVPLFDQTKTNGPIVVICVPYGGGDPTAYRDLFNDHPDVRVFGVDFGDAEIHSPSDFSGLINTLVNEIEAIDAEQIIVYGHCAGAATAACLASAITFTTSAVSLVVAASNPVDDPDAAIHDAAMTSDADWGQYLRSLGAFNGLTDKETDAMLTKGRRDHFIATEAYRTLARQPARGIPAMLLLGDKDPATVKVEEIVNKWRKIIDLVKSANVTGGEHYFIRTHAQEVASKVLSFQLKHK,not soluble
13,MGSDKIHHHHHHMTEADLFVSQFLTEKLTALFPNVPVLSEENCHISFEERKNWKEYWLIDPLDGTQQFINRTDQFSVLITLVRKNKPVLSVIHAPILSTTYYAMCDFGTFKKQLDQVKKLTKNTTNFDRPLRIAVGATTSQEKVRSILPKDFPCEFVVVGSSSLKSGLVAEGAVDCYVRLGQTGEWDTAGAEVLLGETHGAIFDSHFEPLTYNQRETLINPHFVMVGDQSFDWRSIFQFN,not soluble
14,MGSDKIHHHHHHMTEDQAFWNAFAPDYAAAEQASRLPIAHDVIAWLRSTQLLPAHSAVDLAAGTGRYAVQMMPWVQELTLIDWSSAMLAFAKERMHQQADTKAQFIVADWRKLHKPLNADMLFVSQLPTLKPQDLKMLMNWASQTVVLNFQTAQSDALLEQAASLLGLQLPPVYQADPARMISFKVWLTAQRIPFQSHSLTYEIEEQTTLSDLLPDLATPIGLKTAASLAKAITGHENTHVQVTDRLTYTYTQLVWHV,not soluble
15,MGSDKIHHHHHHMTEKIRVAVVGAAGAFGMKHLDGLMNIPDVEVTVVSGTRLEPTQAVAEKYGVENAVVGLDAVLERDDVDAVILATPTGLHASQTQAVLAAGKHVQVEIPLADSIVDAEAALEAAESSNRVAMVGHTRRFNPSHQLVHNRIASGEFHVQQMDVQTYFFRRTNTNAKGEARSWTDHLLWHHAAHTVDLFAYQAGKIVHANAIQGPIHPELGIAMDMSIQLKSESGAICTLSLSFNNNGPFGTFFRYIGDTETYIARYDDLYNGREEPIDVSHVAVSMNGIELQDREFISAIREGREPNSSLRHVIDCYRVLGSLEKQLS,not soluble
16,MGSDKIHHHHHHMTEKKTMLEKLKKLMHHFTLSLDDISVETSRARQLSIRTEIDRLRSNERYKEPKSLIPFGGKIYSQNDEDGIIREIFNRIGTTNKVFVEFGIGNGLENNTLALLFEDWQGLWIDASSDSITSIRNHFSEIIGSGKLAVVESFITKANIDNLIATNVKHREIDLLSVDIDGNDYHVLQAISCITPRVIVIEYNAKFAPPVLFCMDYTETHMWTGDDCFGASLKFLETNLNKMGYCLVGCNLTGANAFFIRRELVTNKFLEPFTAENHFEPARYYLSGYASGHTPTYETLARSLTMRVS,not soluble
17,MGSDKIHHHHHHMTESQALIWDETFPSLLLKGQGTTSFLHGQTTADVFAQKELDRIFMCCWLSTKGALKAVLEIRLSDDMAEIVIICGEINSIRDGFESVIFPADKVKLEVIDPIRRRQEINNNSSWKDSDFSWIDDNTFSIDGITKYKKATKEELEGWKIRQGIPSFDKEMNGETNPYELGLADTINLDKGCYLGQEAMAKFFRSKSLKYQLRYWEAYGENDNFQIGKKFFNTNKNEGYKKNVGVVTSSIRVDDNFFNGLALIKKTFLDHDFCFSENGDSITIKKPISFTNPF,not soluble
18,MGSDKIHHHHHHMTETTSQMRREVLEIPAAIDRLLSQGTPEIARIAAAVAKADPRFAVTVARGSSDHACTFLKYALELELGLPVASIGPSVASIYGAQLKLANSITLSVSQSGKSPDIVAMSRAATEGDSFTVAITNDAQSPLSDASSHTIDIHAGPEISVAATKTFVTSAAAGLILLAEWKDDDILRAALRGLPECLSKAATHDWPDLRAAIGSASSLFTLGRGPAWAISNEAALKFKETCQIHAESYSSAEVLHGPVSIVGGGFPVLCFASGDAAEASVTDVADQLAAKGARVFVTSDKADTAHCLPHVRTGHPLTDPLALIVSFYAMIEKVAAERGVNPDAPRHLNKVTETV,not soluble
19,MGSDKIHHHHHHMTFSAKNAAGETTGGVFTVALDRCAVYGRASSGAVCGSLLESAGWRPAAGSRVLVKPNLLRAQPDGLCCTHPQVVRAAVEYALDCGAVVTVGDSPAFGSAERVAQAVGLTDALQGLGVRVVTLDDPVDCRLPSGLRVGVARAALEADALLNVPRVKVHCQMRLTLAVKNLFGCVCGVRKAVAHTRHGDRGNRFEALIVELAERLPPSGVLLDGITAMHRTGPSGGDPYLLGLLGASCSSVAMDTAVGTLLGAAPETIPLWAELRRRKQPAAFVENLHFPVLFPADFSPQGVTPDGFCIPQVLKPVSFRPATLLRSLVRRMWHRYGPSA,not soluble
20,MGSDKIHHHHHHMTHRRSKSVKIYLVGGAVRDSLLNLPIKDKDYMVVGATPEQMLQLGYRQVGKDFPVFLHPITQQEYALARTERKVGLGYGGFSCYASPDVTLEQDLLRRDLTINAIAQDEEGNLHDPFNGIGDLNARLLRHVSDAFIEDPLRVLRVARFAARFHHLGFQIADSTLQLMQQIAQSGELNALTPERVWQEVDKTLSGSNPEVFFEVLRQCGALKVLFPELDALFGIPQPEKWHPEIDTGLHTLMVLAQAAILTQDKAVRFAALVHDLGKAITPIEHLPKHHGHGQKGLPIIKALCERLRIPNEFRDLALIVSDQHQNVHQAFKLRPETIIKIFDKADFWRKPERLKQLVQACIADMRGRTGFEHQDYPQGEYFSQCFAVASNVNIKAIIQAGFKGEEIKQILHMHRIDAVGQLKRDKQNAVD,not soluble
